To fix the notation:
B1: Recombinant His-tag PGRN protein (recombinant human progranulin) (ligand)
chain: TRCPDGQFCPVACCLDPGGASYSCCRPLLDKWPTTLSRHLGGPCQVDAHCSAGHSCIFTVSGTSSCCPFPEAVACGDGHHCCPRGFHCSADGRSCFQRSGNNSVGAIQCPDSQFECPDFSTCCVMVDGSWGCCPMPQASCCEDRVHCCPHGAFCDLVHTRCITPTGTHPLAKKLPAQRTNRAVALSSSVMCPDARSRCPDGSTCCELPSGKYGCCPMPNATCCSDHLHCCPQDTVCDLIQSKCLSKENATTDLLTKLPAHTVGDVKCDMEVSCPDGYTCCRLQSGAWGCCPFTQAVCCEDHIHCCPAGFTCDTQKGTCEQGPHQVPWMEKAPAHLSLPDPQALKRDVPCDNVSSCPSSDTCCQLTSGEWGCCPIPEAVCCSDHQHCCPQGYTCVAEGQCQRGSEIVAGLEKMPARRASLSHPRDIGCDQHTSCPVGQTCCPSLGGSWACCQLPHAVCCEDRQHCCPAGYTCNVKARSCEKEVVSAQPATFLARSPHVGVKDVECGEGHFCHDNQTCCRDNRQGWACCPYRQGVCCADRRHCCPAGFRCAARGTKCLRREAPRWDAPLRDPALRQLL
notes: Coated on the plate in the solid phase assay; analyte (200 nM) in SPR; also called rPGRN; His-tagged PGRN; not shown: His tag
B2: Recombinant GBA (R&D Systems Cat. No. 7410-GH-010) (enzyme, UniProt P04062 40-536, looked up)
chain: ARPCIPKSFGYSSVVCVCNATYCDSFDPPTFPALGTFSRYESTRSGRRMELSMGPIQANHTGTGLLLTLQPEQKFQKVKGFGGAMTDAAALNILALSPPAQNLLLKSYFSEEGIGYNIIRVPMASCDFSIRTYTYADTPDDFQLHNFSLPEEDTKLKIPLIHRALQLAQRPVSLLASPWTSPTWLKTNGAVNGKGSLKGQPGDIYHQTWARYFVKFLDAYAEHKLQFWAVTAENEPSAGLLSGYPFQCLGFTPEHQRDFIARDLGPTLANSTHHNVRLLMLDDQRLLLPHWAKVVLTDPEAAKYVHGIAVHWYLDFLAPAKATLGETHRLFPNTMLFASEACVGSKFWEQSVRLGSWDRGMQYSHSIITNLLYHVVGWTDWNLALNPEGGPNWVRNFVDSPIIVDITKDTFYKQPMFYHLGHFSKFIPEGSQRVGLVASQKNDLDAVALMHPDGSAVVVVLNRSSKDVPLTIKDPAVGFLETISPGYSIHTYLWRRQ
modifications: biotin-labeled (EZ-Link Sulfo-NHS-LC-Biotin) in the solid phase binding assay only
notes: Bought protein; Immobilised on the COOH1 chip in SPR; also called glucocerebrosidase; beta-glucocerebrosidase

The target in test [1] is T1, Recombinant sortilin (R&D Systems Cat. No. 3154-ST-050) (UniProt Q99523 78-755).
T1 construct: Bought protein; Immobilised on channel 1 of the chip in SPR
In words: SPR, SensiQ Pioneer, COOH1 chip, Sortilin immobilised, PGRN as analyte (data not shown).

For test [2], the target named is B2. In words: solid phase binding assay: PGRN coated at the concentration on the x axis (µg/ml), biotin-labeled GBA added, streptavidin-HRP, OD 450 nm. How it is done: (§1) The plate was washed with 0.1% tween/PBS five times and then blocked with 2% BSA/PBS solution. […] Wash with 0.1% tween/PBS, and coated with streptavidin-HRP (1:2000 dilution) solution for 1 hour. After washing add t h e substrate and stop the reaction with 100 μl 2M H₂SO₄. Read result at UV 450 nm in plate reader.

Test [3] addresses B1. In words: SPR (SensiQ Pioneer), GBA immobilised, PGRN injected, running buffer pH 7.4. How it is done: (§2) All SPR experiments were done by SensiQ Technologies Inc. (Oklahoma City, Okla.) by using SensiQ Pioneer at a controlled analysis temperature of 25° C., and samples in the instrument sample racks were maintained at 18° C. The running buffer throughout the immobilization and the assay consisted of 10 mM HEPES, 150 mM NaCl, 0.005% Tween 20.
(§3) Data was analyzed using the QDat Analysis Software (SensiQ Technologies and BioLogic Software). All data were double referenced to a reference channel (channel 2) and buffer blanks. The average signal of the buffer blanks was used to subtract injection artifacts. Referenced SPR data from the analysis channels were model fit to ascertain ka, kd, and KD for the interactions.

For test [4], the target named is B1. In words: SPR (SensiQ Pioneer), GBA immobilised, PGRN injected, running buffer pH 6.5. As to the method:
as §2, §3

Test [5] addresses B1. Nature of the test: SPR (SensiQ Pioneer), GBA immobilised, PGRN injected, running buffer pH 6.0. How it is done: as §2, §3
The target of test [6] is B1. In words: SPR (SensiQ Pioneer), GBA immobilised, PGRN injected, running buffer pH 5.5. As to the method:
as §2, §3

Test [7] deals with T2, mouse Sortilin (endogenous, lung tissue) (mouse, UniProt Q6PHU5 74-825).
T2 construct: Endogenous protein in lung lysate
T2 sequence (Q6PHU5 74-825 limits assumed): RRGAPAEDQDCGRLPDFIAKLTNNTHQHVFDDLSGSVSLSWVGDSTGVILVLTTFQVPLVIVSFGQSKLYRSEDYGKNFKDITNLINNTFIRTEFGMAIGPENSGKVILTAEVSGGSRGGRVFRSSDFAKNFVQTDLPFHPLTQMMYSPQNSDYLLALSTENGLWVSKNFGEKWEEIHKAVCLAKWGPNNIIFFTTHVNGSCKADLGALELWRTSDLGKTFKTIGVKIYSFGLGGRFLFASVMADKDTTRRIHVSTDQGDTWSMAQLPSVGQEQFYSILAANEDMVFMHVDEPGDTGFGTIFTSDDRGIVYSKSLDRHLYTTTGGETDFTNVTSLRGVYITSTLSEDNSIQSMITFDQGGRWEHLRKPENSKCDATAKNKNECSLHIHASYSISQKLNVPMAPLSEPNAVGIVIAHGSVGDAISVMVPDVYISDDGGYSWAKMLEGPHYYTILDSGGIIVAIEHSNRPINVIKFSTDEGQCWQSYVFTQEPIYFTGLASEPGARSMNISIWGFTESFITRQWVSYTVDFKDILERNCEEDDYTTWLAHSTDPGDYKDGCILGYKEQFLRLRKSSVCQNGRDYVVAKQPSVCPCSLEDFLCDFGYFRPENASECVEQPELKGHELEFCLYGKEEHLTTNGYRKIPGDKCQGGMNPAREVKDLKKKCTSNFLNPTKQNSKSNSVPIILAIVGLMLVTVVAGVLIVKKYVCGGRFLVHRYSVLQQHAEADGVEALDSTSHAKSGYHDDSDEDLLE
In words: co-immunoprecipitation from lung lysate of WT and PGRN KO mice, IP: Sortilin, IB: GLA.

The target in test [8] is T3, mouse GBA (endogenous, lung tissue) (mouse, UniProt P17439 20-515).
T3 construct: Endogenous protein precipitated or detected with anti-GBA antibody; also called glucocerebrosidase
T3 sequence (looked up): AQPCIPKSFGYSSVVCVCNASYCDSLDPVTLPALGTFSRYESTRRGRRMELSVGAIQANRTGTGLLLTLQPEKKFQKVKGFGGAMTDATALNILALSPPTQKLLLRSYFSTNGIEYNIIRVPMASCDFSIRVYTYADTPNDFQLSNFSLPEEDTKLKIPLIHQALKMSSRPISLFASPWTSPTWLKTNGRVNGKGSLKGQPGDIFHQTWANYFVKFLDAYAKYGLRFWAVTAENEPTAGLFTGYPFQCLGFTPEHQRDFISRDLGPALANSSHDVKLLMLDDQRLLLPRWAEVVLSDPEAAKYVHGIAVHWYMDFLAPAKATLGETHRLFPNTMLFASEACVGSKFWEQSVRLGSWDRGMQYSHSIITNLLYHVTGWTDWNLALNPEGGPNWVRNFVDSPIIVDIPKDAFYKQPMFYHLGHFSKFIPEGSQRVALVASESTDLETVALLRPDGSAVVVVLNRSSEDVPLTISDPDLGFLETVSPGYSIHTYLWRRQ
In words: co-immunoprecipitation from lung lysate of WT and PGRN KO mice, IP: GBA, IB: LIMP2.

The target in test [9] is B1. Nature of the test: solid phase binding assay: PGRN coated at the concentration on the x axis (µg/ml), biotin-labeled LIMP2 added, streptavidin-HRP, OD 450 nm. How it is done: as §1

Usually Kd stands for the concentration at which binding is half-saturated. One may read the EC50 (read off the curve) as the concentration that produces a half-maximal response. Turning to B1, in test [1], the Kd is 3.67 nM. In addition, in test [2], the “EC50 (read off the curve)” value is roughly 1 µg/mL. Regarding B2, the dissociation constant (Kd) worked out at 0.71 nM in [3], 20.8 nM in test [4], 16.9 nM in test [5] and 55 nM in [6].

B3: mouse alpha-galactosidase A (endogenous, lung tissue) (enzyme, UniProt P51569 32-419, looked up)
chain: LDNGLARTPTMGWLHWERFMCNLDCQEEPDACISEQLFMQMAELMVSDGWRDAGYDYLCIDDCWMAPERDSKGRLQADPQRFPSGIKHLANYVHSKGLKLGIYADVGNKTCAGFPGSFGSYDIDAQTFADWGVDLLKFDGCHCDSVVSLENGYKYMALALNRTGRSIVYSCEWPLYLRPFHKPNYTDIQYYCNHWRNFDDVYDSWESIKNILSWTVVYQKEIVEVAGPGSWNDPDMLVIGNFGLSWDQQVTQMALWAIMAAPLLMSNDLRQISSQAKALLQNKDVIAINQDPLGKQGYCFRKENHIEVWERPLSNLAWAVAVRNLQEIGGPCPYTIQISSLGRGLACNPGCIITQLLPEKVHLGFYEWTLTLKTRVNPSGTVLFRLER
notes: Endogenous protein in lung lysate; also called GLA; alpha-GLA
B3: the binding result in test [7] is recorded as “binds”.

B4: mouse LIMP2 (endogenous, lung tissue) (receptor, UniProt O35114 1-478, looked up)
chain: MGRCCFYTAGTLSLLLLVTSVTLLVARVFQKAVDQTIEKNMVLQNGTKVFNSWEKPPLPVYIQFYFFNVTNPEEILQGEIPLLEEVGPYTYRELRNKANIQFGENGTTISAVTNKAYVFERNQSVGDPNVDLIRTINIPLLTVVDLAQLTLLRELIEAMLKAYQQKLFVIHTVHELLWGYKDEILSLVHIFKPDVSPNFGLFYERNGTNDGEYVFLTGEDNYLNFSKIVEWNGKTSLDWWTTDTCNMINGTDGDSFHPLISKDEVLYLFPSDLCRSVHITFSSFENVEGLPAFRYKVPAEILANTSENAGFCIPEGNCMDSGVLNISICKNGAPIIMSFPHFYQADEKFVSAIKGMHPNKEEHESFVDINPLTGIILRGAKRFQINTYVRKLDDFVETGDIRTMVFPVMYLNESVLIDKETANQLKSVINTTLVVTNIPYIIMALGVFFGLVFTWLACRGQGSMDEGTADERAPLIRT
notes: Endogenous protein in lung lysate; also called Lysosomal integral membrane protein 2
Take B4: the binding result in test [8] is on record as “binds”.

B5: Recombinant LIMP2 (R&D Systems Cat. No. 1966-LM-050) (receptor, UniProt Q14108 27-432, looked up)
chain: RVFQKAVDQSIEKKIVLRNGTEAFDSWEKPPLPVYTQFYFFNVTNPEEILRGETPRVEEVGPYTYRELRNKANIQFGDNGTTISAVSNKAYVFERDQSVGDPKIDLIRTLNIPVLTVIEWSQVHFLREIIEAMLKAYQQKLFVTHTVDELLWGYKDEILSLIHVFRPDISPYFGLFYEKNGTNDGDYVFLTGEDSYLNFTKIVEWNGKTSLDWWITDKCNMINGTDGDSFHPLITKDEVLYVFPSDFCRSVYITFSDYESVQGLPAFRYKVPAEILANTSDNAGFCIPEGNCLGSGVLNVSICKNGAPIIMSFPHFYQADERFVSAIEGMHPNQEDHETFVDINPLTGIILKAAKRFQINIYVKKLDDFVETGDIRTMVFPVMYLNESVHIDKETASRLKSMINTT
modifications: biotin-labeled (EZ-Link Sulfo-NHS-LC-Biotin)
notes: Bought protein; also called Lysosomal integral membrane protein 2
In the case of B5, in test [9], the binding result is recorded as “no binding (tested: 5 µg/ml)”.

(Values after patent US20170049855A1 (NEW YORK UNIVERSITY, published 2017).)
